Test results as given in the Human Domainome abundance scans (Beltran et al. 2025).
± gives the uncertainty stated by the source.

B1: Transitional endoplasmic reticulum ATPase, residues 26 to 106; numbered along this chain, P55072 (parent)
chain: LIVDEAINEDNSVVSLSQPKMDELQLFRGDTVLLKGKKRREAVCIVLSDDTCSDEKIRMNRVVRNNLRVRLGDVISIQPCP

Variants of: B1
Assay: abundance fitness (aPCA) (normalised: wild type 0, dead -1); higher = more abundant; growth selection in yeast, the domain comes from the species named
Conditions: Homo sapiens

Abundance fitness of substitutions, site by site:
D49: S 0.064 ± 0.057; H -0.251 ± 0.19; G -0.204 ± 0.054; T -0.01 ± 0.097; Q -0.307 ± 0.11; M -0.78 ± 0.2; F -0.936 ± 0.29; V -0.455 ± 0.068; P -0.743 ± 0.21; E -0.094 ± 0.13; K -0.529 ± 0.41; R -0.627 ± 0.064; N -0.254 ± 0.15; Y -0.745 ± 0.23; W -0.923 ± 0.14; L -0.904 ± 0.15; C -0.468 ± 0.4; A -0.139 ± 0.07
S48: K -0.004 ± 0.11; F -0.342 ± 0.17; N 0.049 ± 0.14; Q -0.106 ± 0.1; Y -0.168 ± 0.1; R -0.015 ± 0.051; A 0.065 ± 0.065; C 0.07 ± 0.068; W -0.357 ± 0.18; H -0.23 ± 0.12; G 0.001 ± 0.049; T -0.005 ± 0.074; D -0.137 ± 0.1; E 0.04 ± 0.079; M -0.05 ± 0.094; I 0.031 ± 0.15; V 0.004 ± 0.055
K56: F -0.127 ± 0.1; L -0.047 ± 0.055; T 0.091 ± 0.085; P -0.971 ± 0.2; N 0.111 ± 0.23; H -0.183 ± 0.26; D -0.271 ± 0.15; R -0.012 ± 0.068; G 0.008 ± 0.04; S 0.034 ± 0.061; A 0.018 ± 0.07; E -0.088 ± 0.073; I 0.013 ± 0.15; C 0.027 ± 0.085; Q 0.067 ± 0.1; M -0.112 ± 0.082
D54: A -0.076 ± 0.058; P -0.116 ± 0.072; E -0.062 ± 0.079; C -0.089 ± 0.11; F -0.112 ± 0.099; V -0.016 ± 0.049; Q -0.279 ± 0.1; T 0.218 ± 0.095; W -0.289 ± 0.07; G -0.075 ± 0.044; H -0.073 ± 0.18; M 0.006 ± 0.12; N -0.072 ± 0.089; I -0.106 ± 0.14; K 0.08 ± 0.085; R -0.205 ± 0.038
C52: P -0.624 ± 0.13; D -0.433 ± 0.11; S -0.261 ± 0.066; L 0.018 ± 0.059; Y -0.439 ± 0.12; Q -0.026 ± 0.095; E -0.416 ± 0.085; G -0.197 ± 0.047; V -0.062 ± 0.054; A -0.253 ± 0.069; M -0.016 ± 0.092; R -0.192 ± 0.059; W -0.728 ± 0.11; T -0.027 ± 0.071; F -0.495 ± 0.27; H -0.452 ± 0.26; K -0.334 ± 0.14; I -0.091 ± 0.2
S53: I -0.204 ± 0.13; V -0.022 ± 0.053; P -0.142 ± 0.1; M -0.09 ± 0.073; E 0.003 ± 0.091; F -0.032 ± 0.069; R -0.035 ± 0.042; C -0.042 ± 0.081; H -0.102 ± 0.12; Q 0.033 ± 0.11; G -0.019 ± 0.048; W -0.22 ± 0.071; D 0.021 ± 0.14; L -0.026 ± 0.065; A -0.019 ± 0.048; N 0.044 ± 0.15; K -0.016 ± 0.11; T -0.019 ± 0.072
T51: K -0.065 ± 0.088; H -0.515 ± 0.41; D 0.026 ± 0.094; Q -0.183 ± 0.12; S -0.052 ± 0.054; R -0.086 ± 0.062; G -0.024 ± 0.045; C -0.064 ± 0.1; V -0.145 ± 0.052; M -0.131 ± 0.076; L -0.117 ± 0.063; N 0.126 ± 0.14; Y -0.277 ± 0.12; E 0.05 ± 0.07; I -0.19 ± 0.11; W -0.275 ± 0.068; P -0.306 ± 0.16
E55: P -0.075 ± 0.083; T -0.03 ± 0.12; K -0.03 ± 0.11; W -0.148 ± 0.058; H -0.041 ± 0.11; G 0.018 ± 0.043; Q 0.003 ± 0.084; F -0.052 ± 0.09; A -0.019 ± 0.061; V -0.053 ± 0.046; C 0.002 ± 0.068; D -0.174 ± 0.13; S 0.01 ± 0.056; Y -0.029 ± 0.099; M -0.143 ± 0.097; L 0.003 ± 0.059
L47: Q -0.015 ± 0.088; I -0.042 ± 0.083; K -0.036 ± 0.076; S -0.068 ± 0.061; T -0.116 ± 0.099; G 0.024 ± 0.043; N 0.028 ± 0.16; Y -0.087 ± 0.16; P -0.756 ± 0.17; V -0.018 ± 0.052; R -0.01 ± 0.054; M 0.082 ± 0.095; H 0.126 ± 0.12; F 0.052 ± 0.12; W -0.07 ± 0.073
D50: P -0.105 ± 0.11; T -0.037 ± 0.087; M 0.025 ± 0.1; H -0.021 ± 0.16; N -0.105 ± 0.16; I -0.059 ± 0.1; F -0.214 ± 0.13; Y -0.246 ± 0.11; L -0.146 ± 0.058; E -0.023 ± 0.081; G 0.031 ± 0.046; K -0.105 ± 0.18; R -0.057 ± 0.054; Q -0.277 ± 0.2; A -0.023 ± 0.056; V -0.12 ± 0.044
